{"source": "patent US20260103629A1", "about": "(YALE UNIVERSITY, published 2026)", "binders": {"B1": {"name": "Bap1 (Biofilm-Associated Protein 1 of V. cholerae, wild type), tagged with 3xFLAG at the C-terminus (other)", "chain": "SSSSDIQTKLKWSWSTSVFHPESNQVMAAPIVVQLNDDNGDGKIDEKDVADIIVVTFEGNKYANGGYIRALSGVDGSELWSYSNGGVIADARYAPAAADLDGDGLIEIVSTSALTPYINILDHQGNIKKQLLKSASGWRSVGDIALADINGDGNIEILAADGVYSYESGLLFSHDWAPSSIAFDSNGDGQREVFANGTLYQNNGAYLWQYQANDTVWFSSVANLDGDDKPELVVSVPASLSTPENSEIAVLEHDGSVKWRVNNLSNPGGSVQAVSSFLGKPSSSATTVDAQSAVYGYTDWAHQQRVLAENHQLAIRSGAVVDAIGANSQNMIGGSGGSLSTIDTSKVRAIDVTYGKNKYTWKYGVLEMSFTLDNGAKVTVGSKDSAFTYLGLEWKTKTVPYLGVEWRTKTVSYWFFGWHTKQVAYLAPVWKEKTIPYAVPVTLSKSTTVRYDIPQGSQLLGMNVWSKEKHLFKHKQQVNAVQFLVGKVTADQSHMGIVYAGYYAVDMYDAQGNKVWSVANDDLNSGKIGVSAYDFTGDGIDEVLVQDRLRMRILDGQTGRVMGIIANSSGTLWEYPVVADLEGNNNASLIMVANDYDRESQVNHGVFVYESANPSKPWRNATRIWNQYAFNFSDINANGTIPTNAQPSWLTHNSFRSATIRVPLK", "notes": "also called VC1888; WT Bap1; not shown: C-terminal 3xFLAG tag"}}, "molecular_target": "T1, asialofetuin (Sigma-Aldrich A4781), coated on glass (UniProt P12763 19-359, an extensively glycosylated protein (so in the source))", "T1 construct": "also called asialofetuin-coated surface", "T1 sequence": "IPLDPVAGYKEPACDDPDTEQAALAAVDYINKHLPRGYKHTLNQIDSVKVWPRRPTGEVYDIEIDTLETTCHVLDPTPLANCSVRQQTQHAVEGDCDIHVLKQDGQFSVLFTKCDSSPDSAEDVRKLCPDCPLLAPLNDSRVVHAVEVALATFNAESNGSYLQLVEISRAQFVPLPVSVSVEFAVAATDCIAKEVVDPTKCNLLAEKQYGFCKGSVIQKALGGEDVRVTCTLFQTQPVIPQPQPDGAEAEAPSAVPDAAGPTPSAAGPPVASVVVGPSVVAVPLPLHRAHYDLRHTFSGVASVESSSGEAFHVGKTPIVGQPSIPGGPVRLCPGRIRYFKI", "experiment": "in situ anti-FLAG immunostaining of biofilms grown on asialofetuin-coated glass", "data": [{"binder": "B1", "values": [{"measurement": "binding result", "value": "no binding"}]}]}
